We go through one molecule from US20130035289A1, “PHARMACEUTICAL COMPOSITION FOR TREATMENT OF THROMBOSIS-RELATED DISEASES COMPRISING A FRAGMENT OF PROLACTIN (PRL)-GROWTH HORMONE (GH)-PLACENTAL LACTOGEN (PL)-FAMILY PROTEIN” (UNIVERSITE DE LIEGE, priority 2010, published 2013).

For the test, the target named is T1, PAI-1 (Homo sapiens, UniProt P05121).
T1 construct: gift of Pr; P. Declerck
As to the kind of experiment: Inhibition of PAI-1 anti-proteolytic activity, uPA/plasminogen chromogenic (colorimetric) assay. It is filed as biochemical. The settings on record: uPA, bovine plasminogen, PAI-1, absorbance 405 nm. As for the experimental part:
The main physiological function of PAI-1 is to inhibit uPA and tPA proteolytic activity. […] A chromogenic substrate for plasmin (Spectrozyme PL: 0.5 mM. American Diagnostica INC) in PBS was added to the mixture in 96-well microtitration plates and kept at room temperature. The release of free p-nitro-aniline from the chromogenic substrate was measured spectrophotometrically. The activity of plasmin was determined as the absorbance at 405 nm.

T1 sequence (P05121 24-402): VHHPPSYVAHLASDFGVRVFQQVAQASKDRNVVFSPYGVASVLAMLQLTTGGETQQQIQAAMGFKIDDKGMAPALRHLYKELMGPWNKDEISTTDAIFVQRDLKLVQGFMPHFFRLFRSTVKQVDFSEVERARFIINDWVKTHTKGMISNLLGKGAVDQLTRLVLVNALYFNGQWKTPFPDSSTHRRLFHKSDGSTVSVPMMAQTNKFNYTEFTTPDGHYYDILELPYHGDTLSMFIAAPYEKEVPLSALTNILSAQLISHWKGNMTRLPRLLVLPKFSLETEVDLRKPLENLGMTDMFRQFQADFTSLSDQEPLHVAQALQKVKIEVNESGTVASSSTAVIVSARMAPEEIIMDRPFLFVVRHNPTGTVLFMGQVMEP

B1: 23K PRL: the full fragment (full-length) prolactin (protein)
chain: LPICPGGAARCQVTLRDLFDRAVVLSHYIHNLSSEMFSEFDKRYTHGRGFITKAINSCHTSSLATPEDKEQAQQMNQKDFLSLIVSILRSWNEPLYHLVTEVRGMQEAPEAILSKAVEIEEQTKRLLEGMELIVSQVHPETKENEIYPVWSGLPSLQMADEESRLSAYYNLLHCLRRDSHKIDNYLKLLKCRIIHNNNC
As for B1, the “inhibition of PAI-1 function to inhibit uPA and tPA proteolytic activity” value was “did not show any inhibition”.
